The results in this text go back to the Human Domainome abundance scans (Beltran et al. 2025).

± gives the uncertainty stated by the source.

The series can be described thus: abundance fitness (aPCA) (normalised: wild type 0, dead -1); higher = more abundant; growth selection in yeast, the domain comes from the species named. The following applies: Homo sapiens.
In the case of “Lipoamide acyltransferase component of branched-chain alpha-keto acid dehydrogenase complex, mitochondrial K211S, P11182”, the abundance fitness is -0.044 ± 0.04.
Substance “Lipoamide acyltransferase component of branched-chain alpha-keto acid dehydrogenase complex, mitochondrial K211T, P11182” returned an abundance fitness of -0.041 ± 0.056.
“Lipoamide acyltransferase component of branched-chain alpha-keto acid dehydrogenase complex, mitochondrial K211V, P11182”: the abundance fitness is -0.049 ± 0.045.
To “Lipoamide acyltransferase component of branched-chain alpha-keto acid dehydrogenase complex, mitochondrial K211W, P11182” belongs -0.206 ± 0.047; to “Lipoamide acyltransferase component of branched-chain alpha-keto acid dehydrogenase complex, mitochondrial K211Y, P11182”, -0.157 ± 0.1; to “Lipoamide acyltransferase component of branched-chain alpha-keto acid dehydrogenase complex, mitochondrial L172A, P11182”, -0.327 ± 0.053.
To “Lipoamide acyltransferase component of branched-chain alpha-keto acid dehydrogenase complex, mitochondrial L172C, P11182” belongs -0.243 ± 0.079; to “Lipoamide acyltransferase component of branched-chain alpha-keto acid dehydrogenase complex, mitochondrial L172D, P11182”, -0.237 ± 0.076; to “Lipoamide acyltransferase component of branched-chain alpha-keto acid dehydrogenase complex, mitochondrial L172E, P11182”, -0.107 ± 0.061.
To “Lipoamide acyltransferase component of branched-chain alpha-keto acid dehydrogenase complex, mitochondrial L172F, P11182” belongs -0.195 ± 0.085; to “Lipoamide acyltransferase component of branched-chain alpha-keto acid dehydrogenase complex, mitochondrial L172G, P11182”, -0.681 ± 0.051.
For the substance “Lipoamide acyltransferase component of branched-chain alpha-keto acid dehydrogenase complex, mitochondrial L172H, P11182”, the abundance fitness is -0.052 ± 0.091.
Consider “Lipoamide acyltransferase component of branched-chain alpha-keto acid dehydrogenase complex, mitochondrial L172I, P11182”, for which the abundance fitness was -0.047 ± 0.066.
Turning to “Lipoamide acyltransferase component of branched-chain alpha-keto acid dehydrogenase complex, mitochondrial L172K, P11182”, the abundance fitness was -0.004 ± 0.048.
As for “Lipoamide acyltransferase component of branched-chain alpha-keto acid dehydrogenase complex, mitochondrial L172M, P11182”, the figure is -0.063 ± 0.048; as for “Lipoamide acyltransferase component of branched-chain alpha-keto acid dehydrogenase complex, mitochondrial L172N, P11182”, -0.127 ± 0.07; as for “Lipoamide acyltransferase component of branched-chain alpha-keto acid dehydrogenase complex, mitochondrial L172P, P11182”, -0.226 ± 0.057.
In turn, “Lipoamide acyltransferase component of branched-chain alpha-keto acid dehydrogenase complex, mitochondrial L172Q, P11182” gave an abundance fitness of -0.428 ± 0.32.
“Lipoamide acyltransferase component of branched-chain alpha-keto acid dehydrogenase complex, mitochondrial L172R, P11182” had an abundance fitness of -0.347 ± 0.049.
As for “Lipoamide acyltransferase component of branched-chain alpha-keto acid dehydrogenase complex, mitochondrial L172S, P11182”, the figure is -0.251 ± 0.045.
In turn, “Lipoamide acyltransferase component of branched-chain alpha-keto acid dehydrogenase complex, mitochondrial L172T, P11182” yielded an abundance fitness of -0.085 ± 0.1.
For “Lipoamide acyltransferase component of branched-chain alpha-keto acid dehydrogenase complex, mitochondrial L172V, P11182”, the abundance fitness is -0.107 ± 0.039.
To “Lipoamide acyltransferase component of branched-chain alpha-keto acid dehydrogenase complex, mitochondrial L172W, P11182” belongs -0.206 ± 0.061; to “Lipoamide acyltransferase component of branched-chain alpha-keto acid dehydrogenase complex, mitochondrial L172Y, P11182”, -0.139 ± 0.07.
Take “Lipoamide acyltransferase component of branched-chain alpha-keto acid dehydrogenase complex, mitochondrial L180C, P11182”: the abundance fitness was -0.421 ± 0.055.
As for “Lipoamide acyltransferase component of branched-chain alpha-keto acid dehydrogenase complex, mitochondrial L180D, P11182”, the figure is -0.895 ± 0.16.
As to “Lipoamide acyltransferase component of branched-chain alpha-keto acid dehydrogenase complex, mitochondrial L180E, P11182”, the abundance fitness is -0.438 ± 0.047.
In turn, “Lipoamide acyltransferase component of branched-chain alpha-keto acid dehydrogenase complex, mitochondrial L180F, P11182” yielded an abundance fitness of -0.027 ± 0.095.
As for “Lipoamide acyltransferase component of branched-chain alpha-keto acid dehydrogenase complex, mitochondrial L180G, P11182”, the abundance fitness is -0.609 ± 0.041.
To “Lipoamide acyltransferase component of branched-chain alpha-keto acid dehydrogenase complex, mitochondrial L180H, P11182” belongs -0.938 ± 0.17.
To “Lipoamide acyltransferase component of branched-chain alpha-keto acid dehydrogenase complex, mitochondrial L180I, P11182” belongs -0.194 ± 0.11; to “Lipoamide acyltransferase component of branched-chain alpha-keto acid dehydrogenase complex, mitochondrial L180K, P11182”, -0.296 ± 0.2.
To “Lipoamide acyltransferase component of branched-chain alpha-keto acid dehydrogenase complex, mitochondrial L180M, P11182” belongs 0.008 ± 0.088.
“Lipoamide acyltransferase component of branched-chain alpha-keto acid dehydrogenase complex, mitochondrial L180P, P11182” returned an abundance fitness of -0.557 ± 0.13.
To “Lipoamide acyltransferase component of branched-chain alpha-keto acid dehydrogenase complex, mitochondrial L180Q, P11182” belongs -0.403 ± 0.12; to “Lipoamide acyltransferase component of branched-chain alpha-keto acid dehydrogenase complex, mitochondrial L180R, P11182”, -0.563 ± 0.046.
With “Lipoamide acyltransferase component of branched-chain alpha-keto acid dehydrogenase complex, mitochondrial L180V, P11182”, the abundance fitness is -0.222 ± 0.039.
For “Lipoamide acyltransferase component of branched-chain alpha-keto acid dehydrogenase complex, mitochondrial L180W, P11182”, the abundance fitness is -0.56 ± 0.047.
“Lipoamide acyltransferase component of branched-chain alpha-keto acid dehydrogenase complex, mitochondrial L180Y, P11182” yielded an abundance fitness of -0.079 ± 0.1.
As for “Lipoamide acyltransferase component of branched-chain alpha-keto acid dehydrogenase complex, mitochondrial L188A, P11182”, the figure is -0.494 ± 0.057.
The substance “Lipoamide acyltransferase component of branched-chain alpha-keto acid dehydrogenase complex, mitochondrial L188C, P11182” displayed an abundance fitness of -0.388 ± 0.062.
“Lipoamide acyltransferase component of branched-chain alpha-keto acid dehydrogenase complex, mitochondrial L188D, P11182” yielded an abundance fitness of -0.535 ± 0.071.
The substance “Lipoamide acyltransferase component of branched-chain alpha-keto acid dehydrogenase complex, mitochondrial L188E, P11182” came in with an abundance fitness of -0.391 ± 0.048.
To “Lipoamide acyltransferase component of branched-chain alpha-keto acid dehydrogenase complex, mitochondrial L188F, P11182” belongs 0.116 ± 0.39; to “Lipoamide acyltransferase component of branched-chain alpha-keto acid dehydrogenase complex, mitochondrial L188G, P11182”, -0.544 ± 0.036; to “Lipoamide acyltransferase component of branched-chain alpha-keto acid dehydrogenase complex, mitochondrial L188H, P11182”, -0.368 ± 0.094.
